One assay has as its target Calmodulin (Homo sapiens, UniProt P0DP23). In words: fluorescence anisotropy. (Fluorescence polarisation rises when a labelled molecule tumbles more slowly, as on binding a larger partner.)
A further assay has as its target T1, S100A1 (Homo sapiens, UniProt P23297).
T1 chain: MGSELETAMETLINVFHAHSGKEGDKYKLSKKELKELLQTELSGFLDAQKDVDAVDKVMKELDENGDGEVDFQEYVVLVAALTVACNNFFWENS
In words: fluorescence anisotropy.

No end group written: not given here.

In general, Kd refers to the constant that tells how readily two partners part at equilibrium.

B1: TRPM4 (M4ct_WT) (peptide)
chain: PFIVISHLRLLLRQLCRRPRS
modifications: also: Ca2+
Take B1: the results for the dissociation constant (Kd) in the assay with Calmodulin and in the assay with S100A1 were 2600 nM and 12 µM, respectively.

B2: TRPM4 (M4nt_WT) (peptide)
chain: FGECYRSSEVRAARLLLRRCPL
modifications: cysteine pairing not given here; also: Ca2+
On to B2, for which the Kd amounted to 1300 nM in the assay with Calmodulin and 2.7 µM with S100A1.

Values taken from article PMC7352223 (2020).
